Here are results for five molecules from PMC7878818 (2021).

Ends that are not written are not given here. Me3 = trimethyl group on lysine (trimethyl-lysine); Me2 = dimethyl group on lysine (dimethyl-lysine)

Test in all cases: ITC
In general terms: Isothermal titration calorimetry measures the heat released or taken up as one component is titrated into another.

Experiment [1] deals with Spindlin1/C11orf84 complex (human, UniProt Q9Y657 50-262; Q9BUA3 1-381).
Experiment [2] concerns the target Spindlin1 Y91A/C11orf84 complex (human, UniProt Q9Y657 50-262; Q9BUA3 1-381, Y91A).
The target in experiment [3] is Spindlin1 W62A/C11orf84 complex (human, UniProt Q9Y657 50-262; Q9BUA3 1-381, W62A).
Sequence of Spindlin1 W62A/C11orf84 complex (Q9Y657 50-262 W62A, chain 1 of 2): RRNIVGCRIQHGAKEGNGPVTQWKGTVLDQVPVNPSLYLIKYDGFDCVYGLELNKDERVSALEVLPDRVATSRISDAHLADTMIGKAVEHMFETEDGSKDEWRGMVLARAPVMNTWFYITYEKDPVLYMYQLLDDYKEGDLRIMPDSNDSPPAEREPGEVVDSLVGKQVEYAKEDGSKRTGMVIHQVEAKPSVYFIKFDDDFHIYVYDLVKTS
Sequence of Spindlin1 W62A/C11orf84 complex (Q9BUA3 whole entry, chain 2 of 2): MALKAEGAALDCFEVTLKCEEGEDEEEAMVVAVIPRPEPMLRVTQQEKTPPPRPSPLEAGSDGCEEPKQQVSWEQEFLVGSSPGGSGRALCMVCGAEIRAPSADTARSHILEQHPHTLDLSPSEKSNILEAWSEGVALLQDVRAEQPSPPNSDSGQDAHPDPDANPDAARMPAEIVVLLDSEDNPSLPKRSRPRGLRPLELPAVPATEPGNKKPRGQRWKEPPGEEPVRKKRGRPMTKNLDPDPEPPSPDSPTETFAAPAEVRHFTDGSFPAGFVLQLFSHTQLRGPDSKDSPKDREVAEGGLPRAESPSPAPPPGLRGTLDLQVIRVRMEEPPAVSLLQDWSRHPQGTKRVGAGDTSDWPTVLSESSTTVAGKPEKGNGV
In experiment [4] the target is Spindlin1 W72A/C11orf84 complex (human, UniProt Q9Y657 50-262; Q9BUA3 1-381, W72A).
Sequence of Spindlin1 W72A/C11orf84 complex (Q9Y657 50-262 W72A, chain 1 of 2): as the sequence (Q9Y657 50-262 W62A, chain 1 of 2) above, with A13W, W23A counted along it
Sequence of Spindlin1 W72A/C11orf84 complex (Q9BUA3 whole entry, chain 2 of 2): as the sequence (Q9BUA3 whole entry, chain 2 of 2) above
In experiment [5] the target is Spindlin1 D173A/C11orf84 complex (human, UniProt Q9Y657 50-262; Q9BUA3 1-381, D173A).
Sequence of Spindlin1 D173A/C11orf84 complex (Q9Y657 50-262 D173A, chain 1 of 2): as the sequence (Q9Y657 50-262 W62A, chain 1 of 2) above, with A13W, D124A counted along it
Sequence of Spindlin1 D173A/C11orf84 complex (Q9BUA3 219-305, chain 2 of 2): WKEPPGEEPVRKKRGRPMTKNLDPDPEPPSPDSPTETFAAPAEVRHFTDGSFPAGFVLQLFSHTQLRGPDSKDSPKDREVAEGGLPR
In experiment [6] the target is Spindlin1 F141A/C11orf84 complex (human, UniProt Q9Y657 50-262; Q9BUA3 1-381, F141A).
Sequence of Spindlin1 F141A/C11orf84 complex (Q9Y657 50-262 F141A, chain 1 of 2): as the sequence (Q9Y657 50-262 W62A, chain 1 of 2) above, with A13W, F92A counted along it
Sequence of Spindlin1 F141A/C11orf84 complex (Q9BUA3 whole entry, chain 2 of 2): as the sequence (Q9BUA3 whole entry, chain 2 of 2) above
Experiment [7] has as its target Spindlin1 W62A/W72A/C11orf84 complex (human, UniProt Q9Y657 50-262; Q9BUA3 1-381, W62A | W72A).
Experiment [8] concerns the target Spindlin1 Y98A/C11orf84 complex (human, UniProt Q9Y657 50-262; Q9BUA3 1-381, Y98A).

Sequence of Spindlin1/C11orf84 complex (Q9Y657 50-262, chain 1 of 2): as the sequence (Q9Y657 50-262 W62A, chain 1 of 2) above, with A13W counted along it
Sequence of Spindlin1/C11orf84 complex (Q9BUA3 219-305, chain 2 of 2): as the sequence (Q9BUA3 219-305, chain 2 of 2) above
Sequence of Spindlin1 Y91A/C11orf84 complex (Q9Y657 50-262 Y91A, chain 1 of 2): as the sequence (Q9Y657 50-262 W62A, chain 1 of 2) above, with A13W, Y42A counted along it
Sequence of Spindlin1 Y91A/C11orf84 complex (Q9BUA3 whole entry, chain 2 of 2): as the sequence (Q9BUA3 whole entry, chain 2 of 2) above
Sequence of Spindlin1 W62A/W72A/C11orf84 complex (Q9Y657 50-262 W62A/W72A, chain 1 of 2): as the sequence (Q9Y657 50-262 W62A, chain 1 of 2) above, with W23A counted along it
Sequence of Spindlin1 W62A/W72A/C11orf84 complex (Q9BUA3 whole entry, chain 2 of 2): as the sequence (Q9BUA3 whole entry, chain 2 of 2) above
Sequence of Spindlin1 Y98A/C11orf84 complex (Q9Y657 50-262 Y98A, chain 1 of 2): as the sequence (Q9Y657 50-262 W62A, chain 1 of 2) above, with A13W, Y49A counted along it
Sequence of Spindlin1 Y98A/C11orf84 complex (Q9BUA3 whole entry, chain 2 of 2): as the sequence (Q9BUA3 whole entry, chain 2 of 2) above

Broadly, the Kd is the constant that tells how readily two partners part at equilibrium. Higher therefore signals a looser complex. In experiment [1], ARTKQTARKSTG (K9me3) [H3K9me3 peptide] had a Kd of 2880 nM.

ARTK(Me3)QTARK(Me2)STG [H3K4me3K9me2 peptide] yielded an equilibrium dissociation constant (Kd) in experiment [1] of 42 nM.

Turning to ARTK(Me3)QTARK(Me3)STG [H3K4me3K9me3 peptide], the Kd came out at 59 nM in experiment [2]; 71 nM in experiment [3]; 77 nM in experiment [4]; 57 nM in experiment [5]; 869 nM in experiment [6]; 199 nM in experiment [7]. For the same molecule, in experiment [8], the Kd is 80 nM.

Molecule ARTK(Me3)QTAR(asymmetric Me2)KSTG [H3K4me3R8me2a peptide] gave a Kd in experiment [1] of 82 nM.

Take ARTK(Me3)QTARKSTG [H3K4me3 peptide]: binding in experiment [1] was characterised by a dissociation constant (Kd) of 213 nM.
